In a protein production outcome set (Wang et al. 2014):

Assay: label from the status in PepcDB records
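Note: failed if final PepcDB status was selected cloned or expressed and not failed if soluble or beyond.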

With “MPARPGAARERIRSTAAPAVGEKVLNALRDLPAGMIYTLGAKPTVLRGLALAIEKRVKGIDWSPDGATLFAEVMDGSRHHEVRLEANGGFLTPSCDCPLWRPTGHCPHVIAALAVLKKGLVHQAITSLRLDSDYLAEVSGWLSGVEAAQPTAPAVPRLVVERGADGIQARIWLGEHPVSIHDQALPRTVRDFLWTLLNPRESGFIIERYLEAFGDDAPMALRQDDNEIPLRFDRGRVHGTLTLLEQVRGMVIARKGLEDGHPIPDTCFAAYRYYFDIPAGAVRVIDSFEGWDLWNTINYEAAEWSLDTGVSVERNSRTISLPADAFNAIGLTVTEKGLPTILERIRFYGAGGPGEPARITHNYRLRVADMNDTTALLLAEGVYGDAAIPLSAGAFSFFTSRGRSTASVPLRTKKRSSAVIAGCFAALDCVTRAELERTIRHALAGDDFLKRTVKSEAKRIITAFAAACETRETTLLAADGAWLISVAEPKVEAQLLEIPYRLFGAEIFGSSDLAGAMTVNRDALFRQFPALHNRLAEAGFDLVLQDRPVEAVTLDVTLDATRSTLDWFELRPEIRCGTGELTEQEIAEAMASGGVFRRGDSFLLINEESSRILAMLYPEAGVKKRRKAEVVRIPRLQILDWLVLRHHGVSVRLSPEDERIFASLATFEEIPSSPLPERLQATLRHYQVDAFHWLAFLYTHRFGACLADDMGLGKTIQAISLLAALHEGTLPSRVPEPRPHLIVVPPSLLFNWENELARFYPAFTVLTYRGTGRSADFTGVDIVLTSYGIIPRDIGILAEIPFHCIVFDEAQAVKNIQADTTGACRRLRGAFTLCLTGTPVENHLGEYFSVMDLAVPGLLGSYEEFRRQAGNAAAPFLETLVRRTRPFVLRRSKQMIAAELPPKIETDIYLELTPRQKALYTRTVEEVRETVLEAWRGKSPGQARIIALTAILRLRQLCLSPRLLIADSREPSPKVEFLVEQLEELFTEGHSVLVFSQFTSFLDIVEGELSRRGVHYYRLDGSTPVPERKRLVTAFQKGDEPSVFLLSLKAGGKGLNLTRATYVFHLDPWWNPAVENQASDRAHRIGQTRQVTITRLVMRHTIEEKMMELKKRKLKLYHALLEENSAGDGGGISREDFEFLLG” the protein production was “failed”.

For “MPARQSFTDLKNLVLCDIGNTRIHFAQNYQLFSSAKEDLKRLGIQKEIFYISVNEENEKALLNCYPNAKNIAGFFHLETDYVGLGIDRQMACLAVNNGVVVDAGSAITIDLIKEGKHLGGCILPGLAQYIHAYKKSAKILEQPFKALDSLEVLPKSTRDAVNYGMVLSVIACIQHLAKNQKIYLCGGDAKYLSAFLPHSVCKERLVFDGMEIALKKAGILECK”, the protein production was “not failed”.

In the case of “MPATAGRVRMPANNRVHSSAALQTHGIWQSAIGYDPYAPTSKEEPKTTQQKTEDPENSYASFQGLLALARITGSNNDEARGSCKKCGRVGHLTFQCRNFLSTKEDKEKDPGAIEAAVLSGLEKIRRGVGKGEVEEVSSEEEEESESSDSDVDSEMERIIAERFGKKKGGSSVKKTSSVRKKKKRVSDESDSDSDSGDRKRRRRSMKKRSSHKRRSLSESEDEEEGRSKRRKERRGRKRDEDDSDESEDEDDRRVKRKSRKEKRRRRSRRNHSDDSDSESSEDDRRQKRRNKVAASSDSEANVSGDDVSRVGRGSSKRSEKKSRKRHHRKERE”, the protein production is reported as “failed”.

For “MPCDFPGCGRIFSNRQYLNHHKKYQHIHQKSFSCPEPACGKSFNFKKHLKEHMKLHSDTRDYICEF”, the protein production was “not failed”.

With “MPCPPNVSMMLGKEGPAADSERVTLWRDHHLSHTHAVLWTVILVATVGDILLTMTGLTVGLQEGNAVVSTMLAEFGLAGLWLVKFGAMLWLVAGWRLLSERNATVFLALFAVVTLAVVAYNSVTILQYRGVITAVAGI” the protein production was “failed”.

In the case of “MPDACFSDGDPIVLVVLGYVVVVVAVLGGYALTGGHMGALYQPAELIIIGGAAVGAFISSNSGKAIKATMKAMPSLLKGSKYKKELYLDVMALLYVLLSKARREGILFLEKEIADPASSSVFSQYPRILADAKMMEFLTDYLRMMVNGNMNAFEIEALMDHEIETVRHEAEIPAHALSRVGDGLPAFGIVAAVMGVVHALASADLPPAELGALIANAMVGTFLGILLAYGFVSPLASRVEHQVSESIKMYECIKVTLLASLNGYAPLVAVEFGRKVLYSTVRPSFLELDDHVREVKSLT”, the protein production is reported as “failed”.

For “MPDADVNDFELVDVDQKAADKAIKDLGVKATIDEVCTVGEEGYVVTATDKEGYGGDIKITVGITADGTINGISILSISETAGLGMRATEPAFYEQYQGKQAEKFVVSKDGGDGEPIDALSGATITSRAVTGAVNAALGYYQNAFLEHHHHHH”, the protein production was “not failed”.

For “MPDFVNLWIYLSSTPLFGLTATLTVYLSAHAMYLRLGQVPLANPVLWSMVVLAAGLLAFGVPYPTYFAGAQFIHFLLGPAVVALAWPLWMRRAELRRRWARLLWAALFGGAVACASAVLLGWAVGLPRDIILSLAPKSVTAPVAMGLSETLGGIPALSAVFAALTGLVGALTGKYLFDLLGAVRGRQDWADRGFALGTVSHGIGAARAIQVNADAGAYAGLALGLQVILASLLIPVAFRLAAGLGGS”, the protein production was “failed”.

For “MPDIDAGPRCRDAGSRMFRLAHLTDPHVGPLPRPRLRQLLSKRAAGYVNWRRGRSRHHDMDLLGALIADLHGQGVDHVACTGDLCNLGLPDEWESARVFLEALGPADRVSFVPGNHDAYVRGSLEGLLAACGGWTEADDGQIRLFPYLRRRGPLALVGLSSAIPTKPFVASGRLGPVQIEAAERVLRDLATAPDRPCRVVMIHHPPHPGGAASGRELKDAAAFAAMIGRAGADLILHGHNHVGTVARITGPDGRPVPVVGAPSASARTLLTNRRASYYLYTVTPGENGFQIAVTERGLDEAGGIGELSGFDIETPPADRIGLVHRRRQRHT”, the protein production was “failed”.

With “MPDIFQQEARGWLRCGAPPFAGAVAGLTTKHGGESKGPFASLNMGLHVGDDRTDVVNNRRRLAEWLAFPLERWVCCEQVHGADIQKVTKSDRGNGAQDFATAVPGVDGLYTDEAGVLLALCFADCVPIYFVAPSAGLVGLAHAGWRGTAGGIAGHMVWLWQTREHIAPSDIYVAIGPAIGPCCYTVDDRVVDSLRPTLPPESPLPWRETSPGQYALDLKEANRLQLLAAGVPNSHIYVSERCTSCEEALFFSHRRDRGTTGRMLAFIGRREEWT” the protein production was “not failed”.

For “MPDIVNTEQAQAWNGPEGAHWARNQDRWNAVNEGFDEPLLDAAGITGEDRVLDLGCGSGQTTRRAALRAPRGHVLGLDLSGPMLAEARSRAEREGVANVSFAQGDAQVHPFGAGAFDAAVSRYGVMFFADPVAAFGNVGRALRPGGRLAFVCPADAALNGWVTAMASLREVLPVGDFGQPGLPGMFSLAAPDRIGDVLTAAGFAGIDVNQVQAHGTWGRDAEDAAEFLLGTGPGRHLMERADPTARARARGILTDHLRTHEAADGTVRLLSTSWLTTATRPAATA”, the protein production was “failed”.

With “MPDMPPTETNAIQDRLPRTTNSVEDTMALGARIAQGLSPGAVVALYGDLGTGKTHFVKGVAQGLGLPPAEVRSPTFTILAVHDDGDRPLYHFDAYRVQTPDEFVELGFETYVHGDGLTCIEWAGRVADLLPADTVPLQFHHVAPSTRRITLGAPDSSSSEDDR” the protein production was “failed”.

With “MPELSVILAGFGDALAPINLLFILFGVALGQFVGAVPGIGPVMATAIAIPFTFGMDPLTGIAFLVGVNKGGLVGGAIPAVLLNTPGTPDAAATALDGYPLAKQGKPLKATKMALFSSITGDTFSDIVLITVSAPMAILALRMGPVEVLGLMLLAFAVIAGLMGQSLVKGVVAIALGLMAAMVGTDPEHGSPRLIFGNYELYDGLPLASVAIGMLAISELLKRLSETRGTVRPAITLPRNQPRADRSVSWAEYWGCRFTMLRGAVIGTILGALPGIGSTAAAFMSYASARQASKEPESFGKGSLHGIAASESANSSVMGANMIPMLTLGIPGSVSAALIISAFMIHGIQPGPFLFSQQGQLVYGLFGAMIIANLINLWVGQLGLRFWVRVVSAPEPFIFASALLMCFVGVALASGGLFGIGVMLVFALLAYVMSAFGISVVVFIIAFFLGPRLEISLSQTLALLNGQPQKLLDYPFALVLMALALVTAVALARRRDTESETR” the protein production was “failed”.

With “MPETAWLSDIETLTYLHATVSTHRHQVRVPETPMHLDAILADQVLTGGLEPRLGQAHLRTLTIMGFPSQTWPGLLDDLNRLAFDYRWVTRAICLDKTDAAKVLGRIRRQWFAKRKSIAAMLKEIMTNEASALMDSDAANKAVDADMALQELGSDLVGAAYVTATVTIWNDDPRIADERLRLVEKVIQGRDFTCMVERVNAVEAWLGSLPGHVYANVRQPPVSTLNLAHMMPFSAVWAGPERDEHFDAPPLFLAKTEGSTPFRFSLHVGDVGHTLVVGPTGAGKSVLLALMALQFRRYARSQIFAFDFGGSIRAAALAMRGDWHDLGGSLAEDASEPVALQPLAGIDAEEERAWAAEWVAAILAREKVEITPDVKEHVWSALNNLASAPKSERTLTGLSVLLQSQALKQALKPYCVGGPWGRLLDAETERVGSADVLAFETEGLIGTGAAAAVLAYLFHRIEHRLDGRPTLLIVDEGWLALDDEGFASQLREWLKTLRKKNASVIFATQSLADIDGSAIAPAIIESCPTRLFLPNERALEPQIATIYERFGLNDRQIEILSRATPKRDYYCQSRRGNRLFELGLGEVALAFTAASSKGDQILIARLMAEHGPTGFAKAWLEARGVAWATDLIITPQKEKLPLEHHHHHH” the protein production was “not failed”.

In the case of “MPETSSMLESVVAYLQQAEPSSVYAVLFLSAYFENVIPPIPGDVPIALAGYLLTFSHITFVAALFWSTIGSVAGFMTVFLLSRFLGLKLYAVGECEARHKFAQSIHKLFPPSEMEVVRQKFSGHGYLAVVVNRFLFGSRAVICIVAGMLHLKIPLVLAASFVSSLLWNILLLSTGYLLGSNWDKIGQYAVLYTAPFTILFTGFIVWKVVAYLKKRKQQADGA”, the protein production is reported as “failed”.

With “MPFPPEVYVLLVAALPVVELRGAIPLGVALGLSPWESFLWALLGNLLVVPLALGLLPWAVGLATRMPLFARAWRALEVRVRLKGEAQVQRLGALGLFLFVAVPLPGTGAWSGAVLAVVLGVRRRYAFPALALGVVAAGLLVLLLTGGTVYGLNYLR” the protein production was “failed”.

With “MPGDLPMPTTMFTADELAVIRRAYAHQVMATAATTNPRIEAAFATVPREKFLGAPPWQIANLGGGNRPLPSSDLVLAYQDVLFALQPDNGVNNGSPSLHARLLAELDIQIGDRIAHIGAGTGYYSAILAELVGTSGHVYAVEMDPDLAAHAQAALAERANVSVINADGSQWPQQEVDAIYVNFAVARPAEPWIERLRPGGRLVLPLGVPRQDRPPKGGRHASHGAALRIEHGEGGFAARWIGTAYFVCANGGLTIDDNEIEALTAAFRRGGIEFVKSLLWKTEPRIGRCWHIGGQWALCYDDV” the protein production was “failed”.

With “MPGEPGISTRPFSHCERGTTTRCGEGDAHVTVVISHLLVPATVSTVVTSSSFDRLQALLQRPAVASISPALREALARAWQELPPAQTDNVPWALLGDTLDALALLAADEATLIAALLFDLPALRGAVTDLPWQPAERRVAVEGLLDGLDAADQVWALHAGREAGRNSEGLRRLLLSIIHDLRVVPILLARQLSRMRVADRLSKEQRHALAQLTRDIHAPLANRLGIWQVKWELEDLAFRHLEPDTYRRIAREVDETRVARERYLEAVKRTLSAALAQQGLRADVSGRPKHIYSIWRKMQKKRLSFDQLYDIRAVRVMVDDVAACYAALGAVHSLWAPVPSEFDDYIARPKANDYRSLHTAVVGPEGRTIEIQIRTHEMHAQAELGVAAHWKYKEGGKGGEKAFDRKILWMRQLLEQVQEGEHGELAGALDAELIEDRVYALTPKGEVIDLPQGATPLDFAYHVHTMVGHRCRGARVNDRIVPLTYRLRSGDRVEIMTAKEADPRRDWLLASNGFLASGRSRDKVRAWFHKLDRARNVQAGKDLLDRELKRLGLQHADLSVATRKFHADTIDDLYIQVALGDTGPNQVSRALLEAERAASQPAVPAPPRPTARREGLGKSKFTVEGVGNLLVQLARCCQPVAGEPIAGYLTRGRGITVHRTDCAALARLAAAHPQRVLPVEWGKAGTGYEVDVQVRAVDRRWLLKDITNLIAQEDAHVLEINSDNVRDTGRAQLRLRLKVSDYDQLSGLLGKLDALPGVSEVRRLG” the protein production was “failed”.

For “MPGFEVLYQAAALCLTYPDDDFRARLPLLREAAPQLRGFTDHAAATGQGELQAHYVEVFDFRNRHSLYLSWWTDGDTRNRGMSLVRFKELYRAHGLEFTGEELPDFLPAVLEFVSRTGDMGMLTEHRDALDQLRARLTAFGTPYACVLDAVCATLPPAPTGARR”, the protein production was “failed”.
